Results reported in US8318918B2, “Chalcone 3-hydroxylase” (Technische Universitat Wien, priority 2009, dated 2012).

B1: F3′H: recombinant F3′H from Cosmos sulphureus (Accession No.: FJ216426), tested as a comparison (protein, listed as Cosmos sulphureus)
chain: MTILPLLLYPSLTALLLYVLLNLRPRHPNRLPPGPSPWPIVGNLPHLGTTPHHSLAALAAKYGPLMHLRLGFVDVVVAASASVASQFLKTHDANFASRPPNSGAEHMAYNYQDLVFAPYGPRWRMLRKICSVHLFSGKALDDFRHVRQEEVAVLTRALAGAGKSPVKLGQLLSVCTTNALARVMLGRRVFGERDAKADEFKDMVVEMMVLAGEFNIGDFIPALDWLDLQGITKKMKKLHAQFDSFLNTILEEHKTGKGGSSSHRDLSSTLIALKDDADGEGGKLSDIEIKALLLNLFIAGTDTSSSTVEWAIAELIRCPQILRQAHEEMDNVVGRERLVTESDLGKLTFLQAIVKETFRLHPSTPLSLPRIASESCEIDGYFIPKGSTLLVNVWAIARDPKMWTDPLEFRPTRFLPGGEKPNVDVKGNDFEVIPFGAGRRICVGISLGLRMVQLLVATLVQTFDWELANGVLPEKLNMNEAFGLTLQRAEPLIVYPKPRLAPHVYESG

Columns and labels:
[1] = tested on: recombinant CH3H from Cosmos sulphureus; test: Enzyme assay and kinetic studies of recombinant CH3H with 14C-labelled substrates; type: biochemical; details: recombinant enzyme from the Cosmos sulphureus cDNA clone expressed in yeast
From the text: Heterologous Expression in Yeast For the heterologous expression, the proofreading amplicons were ligated into the yeast expression vector pYES2.1/V5-His-TOPO® (Invitrogen, UK) and transformed into E. coli TOP10F′ (Invitrogen, UK). The identification of the sense constructs took place with a PCR, for which a gene-specific forward and a plasmid-specific reverse primer was used. Sense constructs were isolated and the correct sequence confirmed by sequencing. Desired plasmids were then transformed into the yeast strain INVSc 1 (Invitrogen, UK). The heterologous expression was performed according to methods known in science, and the prepared proteins were shock-frozen in liquid nitrogen and stored at −80° C. […]
(§1) In order to determine the substrate specificity of the heterologously expressed F3′Hs, the following enzyme tests were performed: 20 μg of the recombinant wild-type CH3H or 50 μg of the hybrid proteins, respectively, were incubated with 0.25 nmol [14C]-marked chalcone or flavonoid substrates in the presence of 10 mM NADPH and 0.1 M KH2PO4—K2HPO4 (with 0.4% Na-ascorbate, pH: 7.5) buffer at 30° C. […] Detection and quantification of radioactivity took place using TLC analysis.
Kinetic data (apparent Michaelis constant (Km) and maximum speed of reaction (Vmax)) were determined using Lineweaver Burk plots.

[2] = CH3H activity (hydroxylation of chalcones) of heterologously expressed native, chimeric and mutated enzymes; type: biochemical, Cosmos sulphureus; details: recombinant enzymes expressed in yeast
From the text: (§2) Heterologous Expression in Yeast For the heterologous expression, the proofreading amplicons were ligated into the yeast expression vector pYES2.1/V5-His-TOPO® (Invitrogen, UK) and transformed into E. coli TOP10F′ (Invitrogen, UK). The identification of the sense constructs took place with a PCR, for which a gene-specific forward and a plasmid-specific reverse primer was used. Sense constructs were isolated and the correct sequence confirmed by sequencing. Desired plasmids were then transformed into the yeast strain INVSc 1 (Invitrogen, UK). The heterologous expression was performed according to methods known in science, and the prepared proteins were shock-frozen in liquid nitrogen and stored at −80° C. The determination of the amount of protein in the preparations was performed according to a modified Lowry method.
as §1

[3] = F3′H activity (substrate acceptance) of heterologously expressed native, chimeric and mutated enzymes; type: biochemical, Cosmos sulphureus; details: recombinant enzymes expressed in yeast
From the text: as §2, §1

Row | catalytic CH3H activity with substrate [1] | CH3H activity (hydroxylation of chalcones) [2] | F3′H activity [3] | Molecule
1 | high catalytic CH3H activities | – | – | O=C(/C=C/c1ccc(O)cc1)c1ccc(O)cc1O [Iso, isoliquiritigenin]
2 | – | lacking CH3H activity | confirmed the F3′H activity | B1
